The values below come from publication PMC10859935, “Surface Charge Can Modulate Phase Separation of Multidomain Proteins” (Journal of the American Chemical Society, 2024).

For assay [1], the target named is polySIM (protein consisting of 10 SIMs derived from the PIASx protein).
In assay [2] the target is small ubiquitin-like modifier protein 1 (SUMO1) domain, wild type (UniProt P63165). Put plainly: static light scattering (second virial coefficient A2); pH 6.5; 25 °C; A2 from the slope of scattering intensity versus mass concentration; weak self-association of a single domain.
Assay [3] has the same target. Put plainly: static light scattering (second virial coefficient A2); pH 8.0; 25 °C; 20 mM HEPES, 150 mM KCl, 1 mM MgCl2, 1 mM DTT, 1 mM EGTA; A2 from the slope of scattering intensity versus concentration.
Assay [4] concerns the target T1, small ubiquitin-like modifier protein 1 (SUMO1) domain, wild type (UniProt P63165 1-97).
T1 construct: SUMO1, single domain; also called WT SUMO; WT SUMO1; source: BL21(DE3) T1R cells, purified (Ni-NTA, TEV cleavage, Source15Q, Superdex200); not shown: His8, N-terminal, cleaved
Put plainly: ITC; 50–100 μM SIM peptide in the cell, SUMO in the syringe; 25 °C; 20 mM HEPES (pH 7.0 or 8.0) or 20 mM MES (pH 6.5), 150 mM KCl, 1 mM MgCl2, 1 mM DTT, 1 mM EGTA; 1:1 binding model. The note with it: both partners purified.

T1 sequence (P63165 1-97): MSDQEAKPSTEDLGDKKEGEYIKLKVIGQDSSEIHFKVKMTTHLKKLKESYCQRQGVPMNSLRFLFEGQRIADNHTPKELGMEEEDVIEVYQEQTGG

In assay [1], “polySUMO (synthetic protein consisting of five SUMO domains)” registered a phase-separation threshold (module concentration, equimolar modules) by turbidity at 340 nm, pH 6 of 75 μM; a phase-separation threshold (module concentration, equimolar modules) by turbidity at 340 nm, pH 6.5 of 100 μM; a phase-separation threshold (module concentration, equimolar modules) by turbidity at 340 nm, pH 7 of 150 μM; a phase-separation threshold (module concentration, equimolar modules) by turbidity at 340 nm, pH 8 of 300 μM.
On to “small ubiquitin-like modifier protein 1 (SUMO1) domain, wild type (from UniProt P63165 1-97) (natural protein)”, for which the results for the A2 (second virial coefficient) in assay [2] and in assay [3] were -0.00012 mol mL g^–2 and 0.00012 mol mL g^–2, respectively.
Molecule KVDVIDLTIESSSDEEEDPPAKR [SUMO interaction motif (SIM) peptide derived from the PIASx protein] returned a Kd in assay [4] of 15 to 20 µM.
